{"source": "patent US20120190616A1", "about": "(IPSEN PHARMA S A S, published 2012)", "binders": {"B1": {"name": "(Asn^59, Thr^63, des-Leu^64, des-Lys^65, Glu^70)hIGF-1(1-70)-OH (ligand)", "chain": "GPETLCGAELVDALQFVCGDRGFYFNKPTGYGSSSRRAPQTGIVDECCFRSCDLRRLENYCATPAKSE", "notes": "synthetic; Leu64 and Lys65 deleted; free acid C-terminus; disulfides 6-48, 47-52, 18-61"}, "B2": {"name": "(Pro^27, Lys^28, Asn^59)hIGF-1(1-62)-OH (ligand)", "chain": "GPETLCGAELVDALQFVCGDRGFYFNPKTGYGSSSRRAPQTGIVDECCFRSCDLRRLENYCA", "notes": "synthetic; free acid C-terminus"}, "B3": {"name": "(Arg^27,65,68, Leu^59)hIGF-1(1-70)-OH (ligand)", "chain": "GPETLCGAELVDALQFVCGDRGFYFNRPTGYGSSSRRAPQTGIVDECCFRSCDLRRLELYCAPLRPARSA", "notes": "synthetic; free acid C-terminus; disulfides 6-48, 47-52, 18-61"}, "B4": {"name": "(Leu^59, Arg^65,68)hIGF-1(1-70)-OH (ligand)", "chain": "B3 chain with R27K", "notes": "as for B3"}, "B5": {"name": "(Pro^27, Lys^28, Asn^59)hIGF-1(1-70)-OH (ligand)", "chain": "B3 chain with R27P, P28K, L59N, R65K, R68K", "notes": "as for B3"}}, "note": "Changes are numbered by the printed parent chain.", "data": [{"molecular_target": "T1, native IGF-1 receptor of human MCF-7 cells (human, UniProt P08069 31-1367)", "T1 construct": "whole, on cells; assayed in membranes prepared from MCF-7 cells", "experiment": "radioligand competition, [125I]IGF-1 on MCF-7 cell membranes", "experimental": "The homogenates were washed twice by centrifugation (39,000 g/10 minutes) and the final pellets were resuspended in 50 mM Tris-HCl containing 2.5 mM MgCl₂ and 0.1% BSA.\nUnlabeled competing test peptides were sometimes included. The final assay volume was 0.25 ml. […] The supernatant was decanted and the radioactive particles trapped in the pellet was counted by gamma spectrometry (Wallac LKB, Gaithersburg, Md., USA).", "units": {"IC50": "nM"}, "values": [{"binder": "B1", "IC50": 19}, {"binder": "B2", "IC50": 1.14}, {"binder": "B3", "IC50": 2.69}, {"binder": "B4", "IC50": 2.89}, {"binder": "B5", "IC50": 0.88}]}]}
